B1: Nb-A1 (nanobody A1, comprising amino acid sequence SEQ ID NO:1) (VHH)
VHH: QVQLVQSGGGLVHPGGSLRLSCAASGIDLSLYRMRWYRQAPGKERDLVALITDDGTSYYEDSVKGRFTITRDNPSNKVFLQMNSLKPEDTAVYYCNAETPLSPVNYWGQGTQVTVS
notes: Llama VHH made in the periplasm of E. coli with a C-terminal hexahistidine tag; For the KD measurement it was chemically biotinylated (NHS-PEO4-biotin); not shown: C-terminal hexahistidine tag, named in words only

Assays:
[1] = molecular target: mesothelin as expressed on the plasma membrane of human cells (HeLa, OVCAR-3, SK-OV-3, A1847) (human) (UniProt Q13421); assay: flow cytometry on Hela cells, chemically biotinylated mAb K1, detection with PE streptavidin [continued) C]
mesothelin as expressed on the plasma membrane of human cells (HeLa, OVCAR-3, SK-OV-3, A1847) (human), sequence (Q13421 other isoform, or with tags, fused parts or gaps limits assumed): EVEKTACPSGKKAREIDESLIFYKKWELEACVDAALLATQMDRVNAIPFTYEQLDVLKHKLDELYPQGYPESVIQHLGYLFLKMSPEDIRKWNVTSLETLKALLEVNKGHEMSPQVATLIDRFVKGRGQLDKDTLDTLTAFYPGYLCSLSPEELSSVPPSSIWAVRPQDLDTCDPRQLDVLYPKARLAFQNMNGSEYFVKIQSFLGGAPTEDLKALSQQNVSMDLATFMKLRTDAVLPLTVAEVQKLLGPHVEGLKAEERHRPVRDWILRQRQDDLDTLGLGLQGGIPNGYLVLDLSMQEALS

[2] = molecular target: mesothelin as expressed on the plasma membrane of human cells (HeLa, OVCAR-3, SK-OV-3, A1847) (human) (UniProt Q13421); assay: flow cytometry on HeLa cells, chemically biotinylated antibody, PE-streptavidin, Lineweaver-Burk plot
[3] = molecular target: T1, mesothelin as expressed on the plasma membrane of human cells (HeLa, OVCAR-3, SK-OV-3, A1847) (human, UniProt Q13421 296-598); assay: flow cytometry on Hela cells, chemically biotinylated Nb-A1, detection with PE streptavidin
T1 construct: whole, on cells; also called cellularly expressed mesothelin; cell-surface mesothelin
T1 sequence (Q13421 other isoform, or with tags, fused parts or gaps limits assumed): as above
Protocol: (§1) FIG. 4: Affinity determination of nanobodies for mesothelin as expressed on the plasma membrane of cells. Hela cells were incubated with serial dilutions of in vitro biotinylated anti-mesothelin Nb-A1 (A), Nb-C6 (B) or commercial mAb K1 antibody (•; (C)). Bound antibodies were detected by flow cytometry using PE-conjugated streptavidin. Insets are Lineweaver-Burk plots used to determine the dissociation constant. Error bars represent the standard deviation of experiments performed in triplicate.
(§2) The affinity of Nb-A1 and Nb-C6 for cellularly expressed mesothelin was determined by flow cytometry using HeLa cells for the antigen as described previously; Even-Desrumeaux et al., Mol Biosyst 8(2012), 2385-2394. Briefly, binding to HeLa cells was detected using flow cytometry after incubation with various concentrations of biotinylated nanobodies followed by PE-labeled streptavidin. Apparent KD values were determined by the equation KD=a*Fₘₐₓ in which (a) is the regression line and Fₘₐₓ is the maximum of fluorescence.

[4] = molecular target: T1, mesothelin as expressed on the plasma …; assay: flow cytometry on HeLa cells, chemically biotinylated nanobody, PE-streptavidin, Lineweaver-Burk plot
Protocol: as §1, §2

Molecule | EC50 (read off the curve) [1] | Kd [2] | EC50 (read off the curve) [3] | Kd [4]
anti-mesothelin mouse monoclonal antibody K1 (Santa Cruz Biotechnology) | 2 nM | 2 nM | – | –
B1 | – | – | ~20 nM | ~15 nM

Source: patent publication US20180002439A1 (INSTITUT NATIONAL DE LA SANTE ET DE LA RECHERCHE MEDICALE …, published 2018)
